In this experiment the target is human recombinant NEK2 protein (Abcam, ab42599), RED-NHS labelled (human) (UniProt P51955). The experiment in a line: MST.

B1: SPTLC1 protein tested in the MST assay (enzyme)
chain: MATATEQWVLVEMVQALYEAPAYHLILEGILILWIIRLLFSKTYKLQERSDLTVKEKEELIEEWQPEPLVPPVPKDHPALNYNIVSGPPSHKTVVNGKECINFASFNFLGLLDNPRVKAAALASLKKYGVGTCGPRGFYGTFDVHLDLEDRLAKFMKTEEAIIYSYGFATIASAIPAYSKRGDIVFVDRAACFAIQKGLQASRSDIKLFKHNDMADLERLLKEQEIEDQKNPRKARVTRRFIVVEGLYMNTGTICPLPELVKLKYKYKARIFLEESLSFGVLGEHGRGVTEHYGINIDDIDLISANMENALASIGGFCCGRSFVIDHQRLSGQGYCFSASLPPLLAAAAIEALNIMEENPGIFAVLKEKCGQIHKALQGISGLKVVGESLSPAFHLQLEESTGSREQDVRLLQEIVDQCMNRSIALTQARYLEKEEKCLPPPSIRVVVTVEQTEEELERAASTIKEVAQAVLL
In general, Kd refers to the free concentration of one partner at which half of the binding sites on the other are occupied at equilibrium, for simple one-to-one binding. In the case of B1, the Kd came to 350 nM.

Values taken from article PMC12094245.
